Legend:
Test in all cases: SPR; IL6R-BF648/IL6R-L=100
[1] = biological target: T1, human FcγRIa extracellular domain with C-terminal His tag (human, UniProt P12314 16-292)
T1 construct: Whole entry named; also called FcgRIa; FcgIa
Protocol: (§1) IL6R-L was utilized as the common antibody L chain for all of the antibodies, the antibodies were expressed and purified according to the method of Reference Example 1, and binding to each of the FcγRs (FcγRIa, FcγRIIa type H, FcγRIIa type R, FcγRIIb, and FcγRIIIa type V) was comprehensively evaluated by the method of Reference Example 2.
(§2) Relative binding activities were calculated for the results of analyzing interactions with the respective FcγRs according to the following method.

[2] = biological target: T2, human FcγRIIa type H extracellular domain with C-terminal His tag (human, UniProt P12318 34-217)
T2 construct: extracellular domain; also called FcgRIIaH; FcγRIIa H
T2 sequence (looked up): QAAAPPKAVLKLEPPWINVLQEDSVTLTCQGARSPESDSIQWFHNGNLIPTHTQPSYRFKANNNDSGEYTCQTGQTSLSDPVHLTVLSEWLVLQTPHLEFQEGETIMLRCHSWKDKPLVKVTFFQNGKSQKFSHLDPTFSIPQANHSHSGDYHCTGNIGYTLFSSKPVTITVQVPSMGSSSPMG
Protocol: as §1, §2

[3] = biological target: T3, human FcγRIIb extracellular domain with C-terminal His tag (human, UniProt P31994 43-217)
T3 construct: extracellular domain; For crystals it was expressed with kifunensine and trimmed with Endo F1; also called FcgRIIb; FcγRIIb extracellular region
T3 sequence (looked up): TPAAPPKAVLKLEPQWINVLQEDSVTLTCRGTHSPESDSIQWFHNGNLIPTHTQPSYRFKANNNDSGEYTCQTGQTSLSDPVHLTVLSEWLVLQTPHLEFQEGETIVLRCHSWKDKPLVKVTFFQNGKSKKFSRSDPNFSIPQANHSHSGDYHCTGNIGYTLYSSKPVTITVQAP
Protocol: as §1, §2

T1 sequence (P12314 16-292): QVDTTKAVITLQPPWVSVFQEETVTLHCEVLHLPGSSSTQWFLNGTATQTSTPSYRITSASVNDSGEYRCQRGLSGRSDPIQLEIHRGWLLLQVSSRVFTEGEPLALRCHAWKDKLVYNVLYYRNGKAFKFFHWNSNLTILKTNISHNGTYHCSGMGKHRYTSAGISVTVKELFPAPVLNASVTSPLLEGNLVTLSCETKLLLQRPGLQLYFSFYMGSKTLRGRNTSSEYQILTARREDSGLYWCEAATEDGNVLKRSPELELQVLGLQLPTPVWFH

Binder | relative binding activity [1] | relative binding activity [2] | relative binding activity [3]
IL6R-BP201/IL6R-L (antibody, human IgG1, kappa, name in EU numbering) heavy: QVQLQESGPGLVKPSETLSLTCAVSGHSISHDHAWSWVRQPPGEGLEWIGFISYSGITNYNPSLQGRVTISRDNSKNTLYLQMNSLRAEDTAVYYCARSLARTTAMDYWGEGTLVTVSSASTKGPSVFPLAPSSKSTSGGTAALGCLVKDYFPEPVTVSWNSGALTSGVHTFPAVLQSSGLYSLSSVVTVPSSSLGTQTYICNVNHKPSNTKVDKKVEPKSCDKTHTCPPCPAPDLLGDDSVFLFPPKPKDTLMISRTPEVTCVVVDVSHEDGEVKFNWYVDGVEVHNAKTKPREEQYNSTYRVVSVLTVLHQDWLNGKEYKCKVSNKALPRPIEKTISKAKGQPREPQVYTLPPSRDELTKNQVSLTCLVKGFYPSDIAVEWESNGQPENNYKTTPPVLDSDGSFFLYSKLTVDKSRWQQGNVFSCSVMHEALHNHYTQESLSLSP light: not shown | 57 | 359 | 186
IL6R-BP132/IL6R-L (antibody, human IgG1, kappa, name in EU numbering) heavy: QVQLQESGPGLVKPSETLSLTCAVSGHSISHDHAWSWVRQPPGEGLEWIGFISYSGITNYNPSLQGRVTISRDNSKNTLYLQMNSLRAEDTAVYYCARSLARTTAMDYWGEGTLVTVSSASTKGPSVFPLAPSSKSTSGGTAALGCLVKDYFPEPVTVSWNSGALTSGVHTFPAVLQSSGLYSLSSVVTVPSSSLGTQTYICNVNHKPSNTKVDKKVEPKSCDKTHTCPPCPAPDLLGGDSVFLFPPKPKDTLMISRTPEVTCVVVDVSHEDPEVKFNWYVDGVEVHNAKTKPREEQYNSTYRVVSVLTVLHQDWLNGKEYKCKVSNAALPKPIEKTISKAKGQPREPQVYTLPPSRDELTKNQVSLTCLVKGFYPSDIAVEWESNGQPENNYKTTPPVLDSDGSFFLYSKLTVDKSRWQQGNVFSCSVMHEALHNHYTQESLSLSP light: not shown | 91 | 130 | 150
IL6R-BP152/IL6R-L (antibody, human IgG1, kappa, name in EU numbering) heavy: QVQLQESGPGLVKPSETLSLTCAVSGHSISHDHAWSWVRQPPGEGLEWIGFISYSGITNYNPSLQGRVTISRDNSKNTLYLQMNSLRAEDTAVYYCARSLARTTAMDYWGEGTLVTVSSASTKGPSVFPLAPSSKSTSGGTAALGCLVKDYFPEPVTVSWNSGALTSGVHTFPAVLQSSGLYSLSSVVTVPSSSLGTQTYICNVNHKPSNTKVDKKVEPKSCDKTHTCPPCPAPDYLGDDSVFLFPPKPKDTLMISRTPEVTCVVVDVSHEDPEVKFNWYVDGVEVHNAKTKPREEQDNSTYRVVSVLTVLHQDWLNGKEYKCKVSNAALPRPIEKTISKAKGQPREPQVYTLPPSRDELTKNQVSLTCLVKGFYPSDIAVEWESNGQPENNYKTTPPVLDSDGSFFLYSKLTVDKSRWQQGNVFSCSVMHEALHNHYTQESLSLSP light: not shown | 34 | 548 | 178
IL6R-BP176/IL6R-L (antibody, human IgG1, kappa, name in EU numbering) heavy: QVQLQESGPGLVKPSETLSLTCAVSGHSISHDHAWSWVRQPPGEGLEWIGFISYSGITNYNPSLQGRVTISRDNSKNTLYLQMNSLRAEDTAVYYCARSLARTTAMDYWGEGTLVTVSSASTKGPSVFPLAPSSKSTSGGTAALGCLVKDYFPEPVTVSWNSGALTSGVHTFPAVLQSSGLYSLSSVVTVPSSSLGTQTYICNVNHKPSNTKVDKKVEPKSCDKTHTCPPCPAPDLLGGDSVFLFPPKPKDTLMISRTPEVTCVVVDVSHEDPEVKFNWYVDGVEVHNAKTKPREEQYNSTYRVVSVLTVLHQDWLNGKEYKCKVSNDALPKPIEKTISKAKGQPREPQVYTLPPSRDELTKNQVSLTCLVKGFYPSDIAVEWESNGQPENNYKTTPPVLDSDGSFFLYSKLTVDKSRWQQGNVFSCSVMHEALHNHYTQESLSLSP light: not shown | 102 | 128 | 147
